Laboratory results from article PMC4558366.

Assays:
Assay in all cases: ITC
[1] = target: T1, UHRF1_(600-687) (human), Q96T88
T1 chain: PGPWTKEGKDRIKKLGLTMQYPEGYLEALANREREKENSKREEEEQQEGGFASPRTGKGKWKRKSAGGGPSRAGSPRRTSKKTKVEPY

[2] = target: T2, UHRF1_(647-678) (human), Q96T88
T2 chain: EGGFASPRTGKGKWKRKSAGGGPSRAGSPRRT

[3] = target: T3, UHRF1_(647-687) K659E (human), Q96T88
T3 chain: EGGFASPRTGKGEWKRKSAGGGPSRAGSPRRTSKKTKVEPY

[4] = target: T4, UHRF1_(SRA-RING) (residues 419-806) (human), Q96T88
T4 chain: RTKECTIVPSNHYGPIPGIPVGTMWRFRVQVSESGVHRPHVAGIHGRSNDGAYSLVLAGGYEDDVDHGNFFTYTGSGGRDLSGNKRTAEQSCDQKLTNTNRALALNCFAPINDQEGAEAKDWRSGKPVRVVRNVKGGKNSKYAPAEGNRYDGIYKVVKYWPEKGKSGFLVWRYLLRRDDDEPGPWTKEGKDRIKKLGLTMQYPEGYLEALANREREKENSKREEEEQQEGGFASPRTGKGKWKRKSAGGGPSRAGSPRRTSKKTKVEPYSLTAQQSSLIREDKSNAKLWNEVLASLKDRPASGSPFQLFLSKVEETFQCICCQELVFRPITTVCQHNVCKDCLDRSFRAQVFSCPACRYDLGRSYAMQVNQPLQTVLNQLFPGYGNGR

[5] = target: T5, UHRF1_(TTD-RING) (residues 138-806) (human), Q96T88
T5 chain: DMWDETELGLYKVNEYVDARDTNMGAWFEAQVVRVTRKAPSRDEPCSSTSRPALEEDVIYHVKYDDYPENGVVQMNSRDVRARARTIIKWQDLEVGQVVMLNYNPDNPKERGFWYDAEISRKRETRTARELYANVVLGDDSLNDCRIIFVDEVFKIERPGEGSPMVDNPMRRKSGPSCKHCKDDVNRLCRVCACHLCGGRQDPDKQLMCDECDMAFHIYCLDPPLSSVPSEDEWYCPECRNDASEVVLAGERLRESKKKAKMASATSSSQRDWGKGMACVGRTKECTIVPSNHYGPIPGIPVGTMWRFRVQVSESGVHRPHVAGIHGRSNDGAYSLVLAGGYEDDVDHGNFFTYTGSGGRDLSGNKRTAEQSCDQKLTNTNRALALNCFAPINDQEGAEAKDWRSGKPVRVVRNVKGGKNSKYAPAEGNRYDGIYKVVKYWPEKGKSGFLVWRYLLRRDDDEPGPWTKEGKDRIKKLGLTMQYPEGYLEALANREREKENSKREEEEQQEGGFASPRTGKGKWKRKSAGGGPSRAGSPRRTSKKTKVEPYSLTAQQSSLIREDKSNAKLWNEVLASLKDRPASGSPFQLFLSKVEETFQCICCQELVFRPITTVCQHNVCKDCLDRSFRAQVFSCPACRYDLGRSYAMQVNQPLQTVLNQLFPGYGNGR

Kd [1]: 1.42 µM
Kd [2]: 1.52 µM
fold reduction of binding affinity against wild type [3]: 38 fold
Kd [4]: 1.3 µM
Kd [5]: 27.2 µM
B1: USP7 UBL1-2 (first two UBL domains of USP7) (domain or fragment)
chain: EAHLYMQVQIVAEDQFCGHQGNDMYDEEKVKYTVFKVLKNSSLAEFVQSLSQTMGFPQDQIRLWPMQARSNGTKRPAMLDNEADGNKTMIELSDNENPWTIFLETVDPELAASGATLPKFDKDHDVMLFLKMYDPKTRSLNYCGHIYTPISCKIRDLLPVMCDRAGFIQDTSLILYEEVKPNLTERIQDYDVSLDKALDELMDGDIIVFQKDDPENDNSELPTAKEYFRDLYH
modifications: not checked
